Assay results published in publication PMC6222646, “HIV-1 Integrase-Targeted Short Peptides Derived from a Viral Protein R Sequence” (Molecules : A Journal of Synthetic Chemistry and Natural …, 2018).
Where no end group is shown, it is not given here.

Biological target: HIV-1 integrase (IN) (HIV-1)

With FIHFRIG-NH2 [peptide 1b (FIHFRIG-amide)] as the binder, how does the 3'-P IC50 (in vitro IN 3'-processing assay) read?
The 3'-P IC50 (in vitro IN 3'-processing assay) was 31.5 µM.

And the ST IC50 (in vitro IN strand transfer assay)?
The ST IC50 (in vitro IN strand transfer assay) was 7.3 µM.

How did the 3'-P IC50 (in vitro IN 3'-processing assay) turn out when Ac-FIHFRIG-NH2 [peptide 1c (Ac-FIHFRIG-amide)] was run?
The 3'-P IC50 (in vitro IN 3'-processing assay) was 23.5 µM.

And the ST IC50 (in vitro IN strand transfer assay)?
Its ST IC50 (in vitro IN strand transfer assay) is 4.7 µM.
